# Biological target: microtubules assembled from porcine brain tubulin (porcine) (UniProt P02550)
# Sequence (P02550 whole entry, chain 1 of 2): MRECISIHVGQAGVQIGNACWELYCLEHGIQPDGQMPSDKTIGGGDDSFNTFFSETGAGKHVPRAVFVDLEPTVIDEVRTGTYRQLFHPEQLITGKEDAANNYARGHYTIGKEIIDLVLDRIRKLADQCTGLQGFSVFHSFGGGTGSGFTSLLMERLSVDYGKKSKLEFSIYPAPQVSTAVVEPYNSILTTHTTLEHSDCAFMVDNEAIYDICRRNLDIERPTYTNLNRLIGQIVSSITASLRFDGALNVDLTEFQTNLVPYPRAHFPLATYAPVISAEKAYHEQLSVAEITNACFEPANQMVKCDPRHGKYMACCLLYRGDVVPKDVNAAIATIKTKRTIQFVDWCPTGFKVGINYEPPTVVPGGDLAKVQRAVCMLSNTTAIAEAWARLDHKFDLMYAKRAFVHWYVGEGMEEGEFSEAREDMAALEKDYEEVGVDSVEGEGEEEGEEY
# Sequence (P02554 whole entry, chain 2 of 2, further chain): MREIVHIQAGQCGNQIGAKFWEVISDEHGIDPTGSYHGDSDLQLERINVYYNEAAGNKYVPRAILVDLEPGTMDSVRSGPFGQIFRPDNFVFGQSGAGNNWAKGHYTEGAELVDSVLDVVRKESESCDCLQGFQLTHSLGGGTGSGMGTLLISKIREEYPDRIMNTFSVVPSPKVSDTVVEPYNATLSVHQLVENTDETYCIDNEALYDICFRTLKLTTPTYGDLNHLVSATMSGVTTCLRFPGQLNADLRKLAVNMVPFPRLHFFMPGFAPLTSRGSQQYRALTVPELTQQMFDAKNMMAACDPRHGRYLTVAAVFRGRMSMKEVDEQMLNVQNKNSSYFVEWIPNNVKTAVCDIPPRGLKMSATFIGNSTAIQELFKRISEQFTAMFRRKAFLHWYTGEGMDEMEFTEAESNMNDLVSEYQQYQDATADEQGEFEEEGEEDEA
Substance,"glutamylation activity with taxol-stabilized MTs, normalized to WT","glutamylation activity with taxol-stabilized MTs, decrease against WT"
TTLL6 with R403 and R407 mutated to alanine (from UniProt A4Q9E8 51-502) (enzyme),55 % of WT,–
TTLL6 with R415 and R418 mutated to alanine (from UniProt A4Q9E8 51-502) (enzyme),–,47 % decrease

# Reference: article PMC11529724
